In the supplement of paper PMC10126150:
± gives the standard deviation of the averaged measurements.

Tested on: ATP
Assay: switch fluorescence ratio, 500 uM ATP over buffer (Cy3 cluster intensity, sum of 5 cycles each) (fold (ratio)); higher = stronger signal-on switching upon ATP binding; sequences stand for … in TCGTCGGCAGCGTCAGATGTGTATAAGAGACAGTTTTTTTTTTTTTTTTTTTTTTTTT…TC
Conditions: aptamer strand: ATP DNA aptamer (quencher-CACCTGGGGGAGTATTGCGGAGGAAGG + anchor), 100 nM annealed; ATP concentration: 500 uM
How it was run: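 Switching-strand clusters labelled with Cy3 on a modified Illumina MiSeq flow-cell were annealed to 100 nM quencher-labelled ATP aptamer, imaged in selection buffer, and re-imaged after 15 min with 500 uM ATP at 22 °C. This was done over five cycles with NaOH stripping and re-annealing in between. The fluorescence ratio is summed target-cycle over summed buffer-cycle Cy3 intensity per cluster, averaged per switch-domain sequence, excluding clusters outside 100-1000 RFU.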
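Further: ATP exposure 15 min at 22 °C before imaging.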

With CGTTGTTGTT the switch fluorescence ratio was 0.989 ± 0.045.

For CGTTTAAGTA, the switch fluorescence ratio was 0.973 ± 0.019.

In the case of CGTTTACTTA, the switch fluorescence ratio is reported as 1.02 ± 0.02.

In the case of CGTTTAGGTT, the switch fluorescence ratio is reported as 1 ± 0.017.

CGTTTCAGCG gave a switch fluorescence ratio of 0.952 ± 0.051.

In the case of CGTTTCGTGC, the switch fluorescence ratio is reported as 0.9919 ± 0.003.

CGTTTGGACG gave a switch fluorescence ratio of 0.989 ± 0.079.

In the case of CGTTTGGGGG, the switch fluorescence ratio is reported as 0.987 ± 0.021.

CGTTTGGTCT was tested, and the switch fluorescence ratio was 1 ± 0.051.

CGTTTGGTGG showed a switch fluorescence ratio of 1.01 ± 0.032.

In the case of CGTTTGTGAG, the switch fluorescence ratio is reported as 1 ± 0.0092.

With CGTTTGTGGG the switch fluorescence ratio was 0.984 ± 0.034.

Work on CGTTTTAGAG yielded a switch fluorescence ratio of 1.01 ± 0.016.

In the case of CGTTTTCCGA, the switch fluorescence ratio is reported as 1.01 ± 0.032.

CGTTTTCGGA showed a switch fluorescence ratio of 0.982 ± 0.032.

CGTTTTGATA showed a switch fluorescence ratio of 1.01 ± 0.012.

Work on CGTTTTGATT yielded a switch fluorescence ratio of 0.997 ± 0.013.

CGTTTTGGGC was tested, and the switch fluorescence ratio was 1.04 ± 0.033.

CGTTTTGGGG was tested, and the switch fluorescence ratio was 0.999 ± 0.032.

CGTTTTTCCG gave a switch fluorescence ratio of 1.08 ± 0.032.

CGTTTTTGGC gave a switch fluorescence ratio of 0.992 ± 0.074.

CTAAAAGGGA was tested, and the switch fluorescence ratio was 0.95 ± 0.033.

CTAAAAGTGT showed a switch fluorescence ratio of 0.989 ± 0.034.

In the case of CTAAACAGAA, the switch fluorescence ratio is reported as 0.9996 ± 0.0027.

With CTAAACGGTG the switch fluorescence ratio was 1.03 ± 0.012.

Sequence CTAAAGACTC has a switch fluorescence ratio of 1.19 ± 0.046.

For CTAAAGGGGA, the switch fluorescence ratio was 1.08 ± 0.12.

CTAAAGGGGG showed a switch fluorescence ratio of 0.998 ± 0.029.

CTAAATAGGG gave a switch fluorescence ratio of 1.01 ± 0.049.

CTAAATCGGT gave a switch fluorescence ratio of 0.987 ± 0.061.

Sequence CTAAATGGGA has a switch fluorescence ratio of 1.01 ± 0.029.

CTAAATTAGT was tested, and the switch fluorescence ratio was 0.995 ± 0.042.

CTAAATTGCC showed a switch fluorescence ratio of 0.9991 ± 0.0056.

Work on CTAACATTTT yielded a switch fluorescence ratio of 1.01 ± 0.018.

With CTAACCAGCC the switch fluorescence ratio was 1.6 ± 0.13.

In the case of CTAACCGGTA, the switch fluorescence ratio is reported as 1.006 ± 0.0063.

With CTAACTGGTG the switch fluorescence ratio was 1.2 ± 0.055.

Sequence CTAAGAGGAC has a switch fluorescence ratio of 0.9921 ± 0.0033.

CTAAGAGGCG was tested, and the switch fluorescence ratio was 0.988 ± 0.024.

CTAAGCGGGA gave a switch fluorescence ratio of 1.05 ± 0.016.

In the case of CTAAGGATGC, the switch fluorescence ratio is reported as 1.03 ± 0.021.

For CTAAGGCGGG, the switch fluorescence ratio was 1.013 ± 0.0072.

For CTAAGGGGAT, the switch fluorescence ratio was 1.09 ± 0.15.

Work on CTAAGTTCCG yielded a switch fluorescence ratio of 1.015 ± 0.01.

In the case of CTAATATTAT, the switch fluorescence ratio is reported as 1.01 ± 0.027.

With CTAATCGGTT the switch fluorescence ratio was 0.97 ± 0.029.

Work on CTAATTAAGT yielded a switch fluorescence ratio of 0.973 ± 0.028.

CTAATTATGG was tested, and the switch fluorescence ratio was 1.04 ± 0.014.

For CTAATTGAGT, the switch fluorescence ratio was 1.01 ± 0.014.

CTAATTTTTT gave a switch fluorescence ratio of 1.01 ± 0.025.

CTACCTCCGA gave a switch fluorescence ratio of 3.16 ± 0.29.

Sequence CTACTATAGG has a switch fluorescence ratio of 0.9889 ± 0.0064.

For CTAGAAAGC, the switch fluorescence ratio was 1.02 ± 0.02.

Work on CTAGCAACGC yielded a switch fluorescence ratio of 1.08 ± 0.028.

In the case of CTAGCCAATT, the switch fluorescence ratio is reported as 1.02 ± 0.016.

For CTAGCCCAGC, the switch fluorescence ratio was 1.02 ± 0.026.

Sequence CTAGCCGGGA has a switch fluorescence ratio of 1.017 ± 0.009.

For CTAGCCTCTT, the switch fluorescence ratio was 0.995 ± 0.027.

In the case of CTAGCCTGCT, the switch fluorescence ratio is reported as 0.994 ± 0.038.

Work on CTAGGACAGC yielded a switch fluorescence ratio of 0.994 ± 0.012.

With CTAGGCAGTT the switch fluorescence ratio was 1.01 ± 0.012.

With CTAGGCTGTA the switch fluorescence ratio was 1 ± 0.021.

For CTAGGGAGGT, the switch fluorescence ratio was 0.9701 ± 0.002.

For CTAGGGCTTC, the switch fluorescence ratio was 0.979 ± 0.02.

Work on CTAGGGGCGT yielded a switch fluorescence ratio of 0.979 ± 0.019.

CTAGGGGGGC gave a switch fluorescence ratio of 1 ± 0.093.

With CTAGGTGGAC the switch fluorescence ratio was 1.01 ± 0.012.

CTAGTAGATC gave a switch fluorescence ratio of 1.04 ± 0.014.

CTAGTAGTGT showed a switch fluorescence ratio of 1.01 ± 0.022.

For CTAGTCGCCG, the switch fluorescence ratio was 1.003 ± 0.0097.

Sequence CTAGTCTAAT has a switch fluorescence ratio of 1.01 ± 0.039.

With CTAGTGCTCG the switch fluorescence ratio was 0.971 ± 0.022.

For CTAGTTAAGC, the switch fluorescence ratio was 0.9892 ± 0.0035.

CTAGTTCTTA showed a switch fluorescence ratio of 1.05 ± 0.065.

With CTAGTTGGTT the switch fluorescence ratio was 0.971 ± 0.028.

CTATAAAAGT showed a switch fluorescence ratio of 0.9983 ± 0.0076.

CTATAAGGG showed a switch fluorescence ratio of 0.985 ± 0.031.

Sequence CTATAGGAAA has a switch fluorescence ratio of 1.03 ± 0.026.

Sequence CTATAGGTAA has a switch fluorescence ratio of 0.996 ± 0.019.

CTATAGTAGG gave a switch fluorescence ratio of 0.9849 ± 0.0029.

For CTATAGTCAA, the switch fluorescence ratio was 1.38 ± 0.026.

With CTATATGAAG the switch fluorescence ratio was 0.9802 ± 0.0067.

For CTATCCTCTT, the switch fluorescence ratio was 0.972 ± 0.01.

For CTATCGGGGT, the switch fluorescence ratio was 0.993 ± 0.015.

In the case of CTATCGGTGA, the switch fluorescence ratio is reported as 0.9767 ± 0.0019.

Sequence CTATGAATTT has a switch fluorescence ratio of 0.995 ± 0.011.

CTATGACAGC showed a switch fluorescence ratio of 1.01 ± 0.016.

CTATGATCTG gave a switch fluorescence ratio of 0.989 ± 0.065.

CTATGGCCGG showed a switch fluorescence ratio of 0.969 ± 0.024.

CTATGGCGCA showed a switch fluorescence ratio of 1.03 ± 0.067.

With CTATGGGGGG the switch fluorescence ratio was 0.993 ± 0.035.

With CTATGGTATC the switch fluorescence ratio was 1.02 ± 0.015.

Work on CTATGTGGTG yielded a switch fluorescence ratio of 1.02 ± 0.054.

With CTATTAATAC the switch fluorescence ratio was 1.63 ± 0.096.

CTATTAGGGA gave a switch fluorescence ratio of 0.9728 ± 0.0092.

With CTATTCAGGG the switch fluorescence ratio was 1.02 ± 0.066.

CTATTCGTGG showed a switch fluorescence ratio of 0.973 ± 0.029.

CTATTGGCAA gave a switch fluorescence ratio of 1.06 ± 0.022.

Sequence CTATTGGGCT has a switch fluorescence ratio of 1.01 ± 0.012.

CTATTTAGCC showed a switch fluorescence ratio of 1.02 ± 0.063.
